Experimental data taken from patent US20110239331A1.

Assays:
[1] = molecular target: bee brain calcium channels (Apis mellifera brain neurons, ICa) (Apis mellifera); assay: cell-based or functional assay
[2] = molecular target: mouse trigeminal (sensory) neuron calcium channels (ICa) (mouse); assay: cell-based or functional assay

With omega-atracotoxin-Hv2a (peptide) the EC50 for inhibition of ICa [1] was 0.15 nM and the preference for insect versus vertebrate calcium channels (against m4) [1] was over 50000 fold.

For “ω-agatoxin-IVA (from UniProt P30288 1-48) (peptide)”, the EC50 for inhibition of ICa in bee neurons [1] was 10 nM, the preference for insect versus vertebrate calcium channels (against m4) [1] was 2 fold and the EC50 for inhibition of a component of ICa in mouse sensory neurons [2] was 20 nM. For the same substance, the maximum ICa inhibition in mouse sensory neurons [2] was 40%.
